Measured values: the supplement of paper PMC6757056
± gives the standard deviation of the averaged measurements.

B1: library; a variant is named by its letters at N, in order (parent)
chain: GCUGUCACCGGAAUACCAGCAUCGUCUUGAUGCCCUUGGAAGUCCGGUCUGAUGAGUCCNNNNNGGACGAAACAGC

Columns and labels:
theophylline [1] = variants of: B1; assay: FACS-Seq fitted mean relative fluorescence mCherry/BFP without ligand (log10 relative fluorescence); higher = higher reporter protein expression; conditions: HEK293T, ligand present: no
Summary of the method: (§1)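 Fluorescence values are fitted normal means of bin counts along the mCherry/BFP axis. HEK293T libraries lentivirally carrying the ribozyme switch in an mCherry reporter, with an EF1α-BFP marker, were enriched, exposed to ligand or not for 48 h, and sorted into 6 bins. Genomic DNA per bin was PCR-amplified, barcoded and run on MiSeq. Means of log10(mCherry/BFP) were scaled to five spiked-in control ribozymes.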

theophylline [2] = variants of: B1; assay: normalized RNA/DNA level with ligand (relative to sTRSVctl = 100) (log10 (% of sTRSVctl)); higher = less ribozyme self-cleavage, higher mRNA level; conditions: ligand concentration (+) RNA-Seq: 5 mM, HEK293T, reporter: mCherry (pCS4076), ligand present: yes
Summary of the method: (§2)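 RNA level was computed as RNA reads over DNA reads divided by a spiked-in non-cleaving sequence or by the top sequences, then scaled and log-transformed. Scaling was ×100 with log10, the top group was 25 sequences, and the threshold was ≥100 DNA reads. The reads came from HEK293T cells transfected at 4 µg per 6-well well with ribozyme switch library plasmids (mCherry, or eGFP in some ligand experiments). Total RNA was extracted with EDTA 72 h after transfection, with any ligand added 1 h before it.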

theophylline [3] = variants of: B1; assay: normalized RNA/DNA level without ligand (relative to sTRSVctl = 100) (log10 (% of sTRSVctl)); higher = less ribozyme self-cleavage, higher mRNA level; conditions: HEK293T, reporter: mCherry (pCS4076), ligand present: no
Summary of the method: as §2

theophylline [4] = variants of: B1; assay: FACS-Seq fitted mean relative fluorescence mCherry/BFP with ligand (log10 relative fluorescence); ligand concentration (+) FACS-Seq: 1 mM; higher = higher reporter protein expression; conditions: HEK293T, ligand present: yes
Summary of the method: as §1

Row | Variant | FACS-Seq fitted mean (log10) (theophylline [1]) | normalized RNA/DNA level with ligand (log10) (theophylline [2]) | normalized RNA/DNA level without ligand (log10) (theophylline [3]) | FACS-Seq fitted mean (log10) (theophylline [4])
1 | GUGAU | -0.224 ± 0.019 | 2 ± 0.12 | 1.66 ± 0.024 | -0.0667 ± 0.046
2 | CGUCC | 0.784 ± 0.02 | 2.01 ± 0.086 | 2 ± 0.044 | 0.87 ± 0.021
3 | CGCGU | 0.348 ± 0.12 | 1.91 ± 0.11 | 1.842 ± 0.0033 | 0.441 ± 0.23
4 | UUCCG | 0.818 ± 0.089 | 2.02 ± 0.032 | 2.017 ± 0.01 | 0.751 ± 0.086
5 | UUCCC | 1.02 ± 0.027 | 1.97 ± 0.04 | 1.99 ± 0.031 | 0.9913 ± 0.0095
6 | UGGGA | -0.00768 ± 0.057 | 2.02 ± 0.07 | 1.6195 ± 0.0012 | 0.178 ± 0.054
7 | AGUGG | 0.488 ± 0.2 | 1.98 ± 0.064 | 1.84 ± 0.036 | 0.504 ± 0.026
8 | AGUGA | 0.239 ± 0.055 | 2 ± 0.0061 | 1.38 ± 0.17 | 0.535 ± 0.0085
9 | AGUGC | 0.289 ± 0.03 | 2.01 ± 0.0061 | 1.87 ± 0.071 | 0.297 ± 0.058
10 | UUCGU | 0.93 ± 0.0046 | 2.08 ± 0.14 | 2.02 ± 0.059 | 0.939 ± 0.067
11 | UUACG | 1.08 ± 0.025 | 2.019 ± 0.0074 | 1.93 ± 0.029 | 1.02 ± 0.027
12 | UUACC | 0.865 ± 0.28 | 2.02 ± 0.022 | 1.96 ± 0.095 | 0.847 ± 0.12
13 | UUACU | 1.05 ± 0.07 | 2.08 ± 0.052 | 1.93 ± 0.058 | 1.01 ± 0.18
14 | UGUAC | 0.923 ± 0.082 | 1.98 ± 0.024 | 1.95 ± 0.045 | 0.851 ± 0.13
15 | UGCGU | 0.83 ± 0.044 | 1.97 ± 0.088 | 1.923 ± 0.018 | 0.761 ± 0.07
16 | AUAGA | 0.592 ± 0.06 | 1.958 ± 0.018 | 1.57 ± 0.15 | 0.972 ± 0.13
17 | AUAGG | 0.526 ± 0.084 | 1.994 ± 0.0048 | 1.84 ± 0.068 | 0.441 ± 0.063
18 | AUAGU | 0.0428 ± 0.058 | 2.04 ± 0.045 | 1.76 ± 0.038 | 0.179 ± 0.18

Row | Variant | FACS-Seq fitted mean (log10) (theophylline [1]) | normalized RNA/DNA level with ligand (log10) (theophylline [2]) | normalized RNA/DNA level without ligand (log10) (theophylline [3]) | FACS-Seq fitted mean (log10) (theophylline [4])
19 | AUAGC | 0.922 ± 0.023 | 1.94 ± 0.082 | 1.87 ± 0.12 | 0.9641 ± 0.0048
20 | GUAUU | 0.754 ± 0.04 | 2.01 ± 0.053 | 1.88 ± 0.046 | 0.8044 ± 0.005
21 | CUACC | 0.996 ± 0.11 | 1.968 ± 0.015 | 1.96 ± 0.11 | 1.02 ± 0.03
22 | CUACA | 0.702 ± 0.027 | 2.031 ± 0.0063 | 1.84 ± 0.021 | 0.826 ± 0.11
23 | CUACU | 0.761 ± 0.11 | 1.96 ± 0.087 | 1.8 ± 0.019 | 0.924 ± 0.034
24 | AGUUC | 0.981 ± 0.011 | 2 ± 0.034 | 1.89 ± 0.049 | 1.02 ± 0.049
25 | AGUUA | 0.892 ± 0.082 | 1.87 ± 0.14 | 1.68 ± 0.039 | 1.035 ± 0.0042
26 | GUCUG | 0.742 ± 0.06 | 1.96 ± 0.074 | 1.87 ± 0.11 | 0.898 ± 0.069
27 | AGCGU | -0.0881 ± 0.074 | 2.01 ± 0.027 | 1.82 ± 0.055 | 0.017 ± 0.14
28 | CGGCC | 0.745 ± 0.024 | 2.06 ± 0.1 | 2.03 ± 0.1 | 0.6421 ± 0.002
29 | CGGCA | 0.507 ± 0.017 | 1.96 ± 0.046 | 1.485 ± 0.0076 | 0.7564 ± 0.0075
30 | AGUAG | 0.85 ± 0.075 | 1.97 ± 0.1 | 1.71 ± 0.034 | 0.8838 ± 0.0022
31 | AGUAA | 0.346 ± 0.083 | 1.89 ± 0.12 | 1.35 ± 0.13 | 0.781 ± 0.02
32 | AGUAC | 0.729 ± 0.04 | 1.997 ± 0.019 | 1.83 ± 0.068 | 0.749 ± 0.072
33 | UGUCU | 0.747 ± 0.19 | 2.02 ± 0.035 | 1.988 ± 0.0094 | 0.783 ± 0.043
34 | AUGCC | 0.828 ± 0.054 | 2 ± 0.033 | 1.96 ± 0.071 | 0.852 ± 0.022
35 | AUGCG | 0.848 ± 0.14 | 1.99 ± 0.11 | 1.87 ± 0.06 | 0.986 ± 0.1
36 | AUGCA | 0.792 ± 0.023 | 2.023 ± 0.014 | 1.841 ± 0.0049 | 0.96 ± 0.14
